Biological target: Laminin 421/521
Test: phage display, NGS count
Details: not given

Count	Molecule
134	KALGYSLVGGEW
359	CSHHKLKQC
117	WGLKLPH
121	QGWFRHS
124	IPVGERK
309	GKPDHRLVSLWR
147	APKVTNARPTQL
131	CMNKIQRDC
295	CSKHNHSRC
497	GGYDLPWANWQN

Biological target: Human Myelin Basic Protein (Homo sapiens, UniProt P02686)
Test: Phage display library screening (Example 2, Python script analysis), binding to Human Myelin Basic Protein
Parameters: Enzo 200-606-M001 from human; purchased Enzo 200-606-M001; host or cells: human brain (tissue-derived)
Details: R3 Myelin Basic Protein; combined unique sequence count, Python/R script analysis
Description: Phage display library screens were used to identify peptides that bind to target proteins (including specific laminin trimers) that are expressed in human nerves, as described in Table 3. These screens were also carried out to identify peptides that could bind selectively to nerves versus muscle. Such peptides could therefore be useful for systemic in-vivo labeling of nerves during fluorescence assisted surgery. Specifically, m 13 phage libraries expressing 7 or 12 random amino acid peptides, or a cyclic peptide CX7C, on the N-terminus of the minor coat protein pIII (New England Biolabs; NEB) were processed through multiple rounds of selection for binding to target proteins expressed in nerves, or to excised human nerves, nerve extracts, or muscle, as described further below.
For screening against the specified target proteins in Table 1, including LN211, LN411, LN421, and LN521, the phage library was processed by up to 4 binding and wash cycles. For selection, phage libraries were incubated for up to 24 hours at 4° C. in 96 well plates that had been coated with one of the target proteins. Plates were then washed with PBS and phage were eluted using 0.2M glycine pH 2.0. Phage supernatants where then neutralized with Tris pH 9.0 prior to plating on TGI bacteria and LB agar plates. Colonies were counted to determine titer followed by DNA preparation of pools of phage and NextGen sequencing. After rounds of selection, phage were pooled and amplified for iterative selection. Phage that were bound at each round were sequenced. NextGen sequencing of pools after 2, 3 and 4 rounds of selection was used to isolate candidate sequences that were analyzed further to identify those that specifically bound each unique target protein.
Python Script Analysis: For all NEB sequence datasets, a python script was used to translate, trim, and filter the peptide sequences. The script translated the nucleotide sequences, translating amber codons as glutamine in peptide sequences, and then trimmed the end sequences that come from the vector. Secondly, the script combined the unique counts of trimmed peptides with identical sequences. […] Another python script was used to group peptides from different assays according to protein target (Myelin Protein Zero, Myelin Proteolipid Protein, Myelin Basic Protein, and Nidogen-2) and also combine the unique sequence counts for each peptide. An R script was written to merge the peptide sequences from different data files and determine peptides specific for each protein target but absent from different protein binding datasets. Peptide sequences were ranked by unique sequence count.

Chain of Human Myelin Basic Protein (P02686 134-304): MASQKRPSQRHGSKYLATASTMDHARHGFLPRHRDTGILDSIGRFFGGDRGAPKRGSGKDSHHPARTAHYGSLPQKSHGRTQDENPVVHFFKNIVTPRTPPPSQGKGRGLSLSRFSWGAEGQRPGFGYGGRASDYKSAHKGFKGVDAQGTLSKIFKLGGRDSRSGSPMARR

Molecule	Count
AAGQRSF (R3 Myelin Basic Protein-binding peptide)	7
AGSLLSL (R3 Myelin Basic Protein-binding peptide)	6
AILTRPP (R3 Myelin Basic Protein-binding peptide)	7
AIPPRKL (R3 Myelin Basic Protein-binding peptide)	6
AISWKGF (R3 Myelin Basic Protein-binding peptide)	6
AKFTMWV (R3 Myelin Basic Protein-binding peptide)	6
ALGTRPL (R3 Myelin Basic Protein-binding peptide)	7
ALRDTRV (R3 Myelin Basic Protein-binding peptide)	6
ALYNQMT (R3 Myelin Basic Protein-binding peptide)	6
ANLSRSV (R3 Myelin Basic Protein-binding peptide)	9
AQFLTIY (R3 Myelin Basic Protein-binding peptide)	6
AQLGAFR (R3 Myelin Basic Protein-binding peptide)	6
ARVPNPL (R3 Myelin Basic Protein-binding peptide)	6
ASNTSKG (R3 Myelin Basic Protein-binding peptide)	7
AVRQTTM (R3 Myelin Basic Protein-binding peptide)	7
CEDSDKSVC (R3 Myelin Basic Protein-binding peptide)	7
CNRVPFKQC (R3 Myelin Basic Protein-binding peptide)	7
CPRMNNPLC (R3 Myelin Basic Protein-binding peptide)	7
CTMTNQYDC (R3 Myelin Basic Protein-binding peptide)	6
DSQEKSV (R3 Myelin Basic Protein-binding peptide)	6
DSYLLSA (R3 Myelin Basic Protein-binding peptide)	8

Molecule	Count
DVRIWTL (R3 Myelin Basic Protein-binding peptide)	6
DVVKDVI (R3 Myelin Basic Protein-binding peptide)	7
ELKSLRF (R3 Myelin Basic Protein-binding peptide)	6
ESKSPRE (R3 Myelin Basic Protein-binding peptide)	6
ESPYPHS (R3 Myelin Basic Protein-binding peptide)	7
ETHYKIA (R3 Myelin Basic Protein-binding peptide)	6
FDLLARK (R3 Myelin Basic Protein-binding peptide)	6
FKLPWAS (R3 Myelin Basic Protein-binding peptide)	7
FLNQAPT (R3 Myelin Basic Protein-binding peptide)	7
FQLSYET (R3 Myelin Basic Protein-binding peptide)	6
FSAGVGK (R3 Myelin Basic Protein-binding peptide)	7
FSARTNT (R3 Myelin Basic Protein-binding peptide)	9
FVLPNKN (R3 Myelin Basic Protein-binding peptide)	8
GEPALVT (R3 Myelin Basic Protein-binding peptide)	6
GHSHYILGKPTA (R3 Myelin Basic Protein-binding peptide)	7
GPITHAI (R3 Myelin Basic Protein-binding peptide)	7
GPRVTPH (R3 Myelin Basic Protein-binding peptide)	6
GQWWKML (R3 Myelin Basic Protein-binding peptide)	6
GRHTDVV (R3 Myelin Basic Protein-binding peptide)	6
GSPYGWG (R3 Myelin Basic Protein-binding peptide)	6
GVAEVGL (R3 Myelin Basic Protein-binding peptide)	6

Molecule	Count
HAHWARL (R3 Myelin Basic Protein-binding peptide)	6
HFLRPSD (R3 Myelin Basic Protein-binding peptide)	7
HFTFFPI (R3 Myelin Basic Protein-binding peptide)	6
HFYGPGP (R3 Myelin Basic Protein-binding peptide)	9
HLLKTHS (R3 Myelin Basic Protein-binding peptide)	7
HMAGVNQ (R3 Myelin Basic Protein-binding peptide)	7
HPDTLPQ (R3 Myelin Basic Protein-binding peptide)	7
HPTGTPT (R3 Myelin Basic Protein-binding peptide)	7
HPWLGNR (R3 Myelin Basic Protein-binding peptide)	9
HPWSHPN (R3 Myelin Basic Protein-binding peptide)	6
HQMRTML (R3 Myelin Basic Protein-binding peptide)	6
HQPLFPR (R3 Myelin Basic Protein-binding peptide)	6
HRTHLHQ (R3 Myelin Basic Protein-binding peptide)	6
HSGPLLP (R3 Myelin Basic Protein-binding peptide)	6
HSSATMS (R3 Myelin Basic Protein-binding peptide)	6
HTGLRSL (R3 Myelin Basic Protein-binding peptide)	7
HYSPNVM (R3 Myelin Basic Protein-binding peptide)	9
IGTRWHQ (R3 Myelin Basic Protein-binding peptide)	6
IILPSAQ (R3 Myelin Basic Protein-binding peptide)	8
